According to publication PMC9073949 (Crystal Growth & Design, 2022):
Values joined by “and” are separate entries in the source; they are usually repeats but may differ in a detail not shown here. Equal entries are not always repeated. Where two headings read alike, the source gives them in different places.

Legend:
[1] = Static light scattering (Debye plot): second osmotic virial coefficient B22 and derived activity coefficient; assay type: physicochemical; conditions: for B22 (second virial coefficient): SLS Debye plot, ≤ 3 mg·mL^–1, 24.0 °C
Source text: The procedure was identical to the DLS experiments, but instead of disposable cuvettes, a quartz cuvette was utilized. After each run, the quartz cuvette was carefully washed with deionized water, ethanol, and IPA followed by drying to remove any impurities and dust before further usage for the next sample. A solvent refractive index of 1.3304 and a refractive index increment of Δn/Δc = 0.183 were utilized.[34] The second virial coefficient was obtained by using Debye plots at low protein concentration (≤ 3 mg·mL^–1).

[2] = Insulin crystallization kinetics (desupersaturation, induction time, crystal yield); assay type: physicochemical
Experimental: (§1) Precise temperature control was achieved by using incubators held at a constant temperature. Citric acid buffer (0.1 M) was prepared at different pH levels by varying the ratio between citric acid and tri-sodium citrate. The pH was determined using a Jenway 4330 pH and conductivity meter (Jenway, UK) with an instrument resolution of around ±0.02 pH units. Zinc sulfate (ZnSO4), zinc chloride (ZnCl2), or zinc acetate (ZnAc) were dissolved in citric acid buffer as a zinc salt stock solution. […] Each experimental condition was repeated multiple times, and the error bars represent the deviation between these repetitions. The desupersaturation (crystallization occurs and the solution concentration decreases) was monitored by measuring the UV–vis absorption at a wavelength of 280 nm with a NanoDrop One^c microvolume UV–vis spectrophotometer (Thermo Fischer Scientific, USA). A sample as small as 10–20 μL was withdrawn from the crystallizer (Eppendorf tube) and was centrifuged (6000 rpm, 10–20 min). […] An extinction coefficient of 1.04 mL·mg^–1·cm^–1 was utilized.[32] Multiple dilutions for every sample were made to minimize dilution errors. The crystal slurry which remained in the centrifuged sample was observed underneath an optical microscope (CX-41, Olympus, Japan) to confirm that the decrease in concentration is because of crystallization and not due to other phenomena, such as amorphous precipitation.
(§2) This lag time is commonly termed as induction time.[33] We found the induction time graphically by finding the intersection between the tangents of the point of inflection (tangent of the biggest gradient after the solution concentration dropped substantially) and the initial concentration (which stays constant until the solution concentration drops substantially). A graphical visualization and a detailed definition and justification of induction time can be found in the Supporting Information.
The crystal yield was calculated to evaluate the performance of crystallization. […] The yield can be either expressed in terms of concentration or supersaturation ratio, which is St = ct/c* for an ideal solution with […] at time zero. [drawing 2] 2

[3] = for solubility: equilibrium with crystals, UV 280 nm
Experimental: as §1, §2
To ensure that the true solubility concentration was measured, the samples were gently mixed frequently with pipettes once the crystallization experiment had finished. […] Once the concentration had stabilized, that is, no significant change over multiple days, this concentration was taken as solubility.

[4] = Dynamic light scattering: diffusion coefficient and polydispersity of insulin; assay type: physicochemical; conditions: DLS
Experimental: The solutions were prepared identically to the crystallization solutions which have been described previously. The solutions were filtered with a 0.22 μm pore size filter into a disposal cuvette (polystyrene) which then was loaded into a Zetasizer μV (Malvern, UK).

[5] = pH 6.0, St=0 = 10.0, ZnSO4, 24.0 °C
[6] = pH 6.0, initial insulin 3 mg·mL^–1, ZnSO4 […], 24.0 °C

**Q.** For Human insulin, which “B22 (second virial coefficient)” value ([1]; pH 6.0) is on record?
**A.** –4.23 × 10^–4 mL·mol·g^–2

**Q.** What about the “B22 (second virial coefficient)” value ([1]; pH 6.2) of the same substance?
**A.** –2.47 × 10^–4 mL·mol·g^–2

**Q.** What about the “B22 (second virial coefficient)” value ([1]; pH 6.5) of the same substance?
**A.** –4.18 × 10^–4 mL·mol·g^–2

**Q.** What about the “B22 (second virial coefficient)” value ([1]; pH 6.7) of the same substance?
**A.** –4.0 × 10^–4 mL·mol·g^–2

**Q.** And the “γ (activity coefficient)” value ([1]; pH 6.7, calculated from B22 with eq 4, 24.0 °C)?
**A.** 0.96

**Q.** And the “desupersaturation rate after a yield of 85% was achieved” value ([2]; St=0 = 10.0, pH 6.0)?
**A.** 0.03 h^–1

**Q.** What about the “desupersaturation rate after a yield of 85% was achieved” value ([2]; St=0 = 10.0, pH 6.2) of the same substance?
**A.** 0.01 h^–1

**Q.** And the “desupersaturation rate after a yield of 85% was achieved” value ([2]; St=0 = 10.0, pH 6.5)?
**A.** 0.07 h^–1

**Q.** What about the “desupersaturation rate after a yield of 85% was achieved” value ([2]; St=0 = 10.0, pH 6.7) of the same substance?
**A.** 0.02 h^–1

**Q.** And the “t50% (time required to achieve a yield of 50%)” value ([2]; pH 6.0, St=0 = 5.6)?
**A.** 128.0 h

**Q.** And the induction time ([2]; pH 6.0, St=0 = 5.6, ZnSO4, 24.0 °C)?
**A.** 81.0 h

**Q.** What about the “crystallization rate ΔS/Δt” value [2, 5] of the same substance?
**A.** 0.18 h^–1

**Q.** And the induction time [2, 5]?
**A.** 26.5 h

**Q.** What about the “time after which the concentration drops” value [2, 6] of the same substance?
**A.** 4.0 h

**Q.** What about the “time to reach quasi-equilibrium concentration” value [2, 6] of the same substance?
**A.** roughly 20.0 h

**Q.** And the “reduction in induction time” value ([2]; pH 6.0, initial supersaturation ratio increased from 5.6 to 10.0)?
**A.** 67%

**Q.** And the “decrease in induction time” value ([2]; pH 6.0 to pH 6.7 at St=0 = 7.4)?
**A.** roughly 81%

**Q.** And the “decrease in induction time” value ([2]; pH 6.0 to pH 6.7 at St=0 = 10.0)?
**A.** ~88%

**Q.** And the “reduction in induction time” value ([2]; pH 6.5, initial supersaturation ratio increased from 5.6 to 10.0)?
**A.** 77%

**Q.** And the “crystallization rate ΔS/Δt” value ([2]; pH 6.7, St=0 = 5.7, 12.0 h to 41.0 h, ZnSO4, 24.0 °C)?
**A.** 0.13 h^–1

**Q.** What about the “crystallization rate ΔS/Δt” value ([2]; pH 6.7, St=0 = 10.0, 1.3 h to 26.0 h, ZnSO4, 24.0 °C) of the same substance?
**A.** 0.32 h^–1

**Q.** And the “time to reach quasi-equilibrium concentration” value ([2]; pH 6.7, initial insulin 3 mg·mL^–1, ZnSO4 […], 24.0 °C)?
**A.** ~80.0 h

**Q.** And the solubility ([3]; pH 6.0, ZnSO4, 73 mM citric buffer, 7 mM HEPES, 24.0 °C)?
**A.** 0.14 mg·mL^–1

**Q.** And the increase in solubility ([3]; pH 6.0 to pH 6.7, ZnSO4, 24.0 °C)?
**A.** 5 fold

**Q.** And the solubility ([3]; pH 6.5, ZnSO4, 73 mM citric buffer, 7 mM HEPES, 24.0 °C)?
**A.** 0.41 mg·mL^–1

**Q.** And the increase in solubility ([3]; pH 6.5 to pH 6.7 (0.2 pH units), ZnSO4, 24.0 °C)?
**A.** roughly 70%

**Q.** What about the “insulin equilibrium concentration (solubility c*)” value ([3]; pH 6.7, ZnSO4 (SO4^2– anion), thermodynamic, equilibrium with crystals after crystallization, 73 mM citric buffer, 7 mM HEPES, 24.0 °C, monitored up to 4 weeks, UV 280 nm of centrifuged supernatant) of the same substance?
**A.** 0.70 mg·mL^–1 and 0.70 ± 0.03 mg·mL^–1

**Q.** And the diffusion coefficient ([4]; pH 6.0, lower end of insulin concentrations probed, 24.0 °C)?
**A.** 0.99 × 10^–6 cm^2·s^–1

**Q.** And the diffusion coefficient ([4]; pH 6.0, upper end of insulin concentrations probed, 24.0 °C)?
**A.** 0.86 × 10^–6 cm^2·s^–1

**Q.** And the diffusion coefficient ([4]; pH 6.7, Ac^2– anion, cins = 3 mg·mL^–1, 24.0 °C)?
**A.** 0.87 ± 0.1·10^–3 10^–6 cm^2·s^–1

**Q.** And the diffusion coefficient ([4]; pH 6.7, Cl^– anion, cins = 3 mg·mL^–1, 24.0 °C)?
**A.** 0.87 ± 0.5·10^–3 10^–6 cm^2·s^–1
